# T1: human neutrophil elastase (HNE), immobilized on agarose beads (human, UniProt P08246 30-247, limits assumed)
# T1 construct: also called HNE beads; leukocyte elastase
# T1 sequence (looked up): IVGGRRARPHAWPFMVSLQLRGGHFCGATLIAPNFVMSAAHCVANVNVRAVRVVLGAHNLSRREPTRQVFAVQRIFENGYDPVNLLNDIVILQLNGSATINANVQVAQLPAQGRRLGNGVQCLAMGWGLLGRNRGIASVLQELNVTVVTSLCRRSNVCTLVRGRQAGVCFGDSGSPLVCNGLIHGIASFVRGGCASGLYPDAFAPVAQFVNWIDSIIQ
# Experiments:
# [1] = target: anhydro-trypsin (agarose-immobilized, Pierce) (UniProt P00760); test: phage on beads, elution, pfu
# [2] = target: trypsin (immobilized active trypsin, Pierce; or free trypsin) (UniProt P00760); test: phage on beads, elution, pfu
# Sequence of trypsin (immobilized active trypsin, Pierce; or free trypsin) (P00760 24-246): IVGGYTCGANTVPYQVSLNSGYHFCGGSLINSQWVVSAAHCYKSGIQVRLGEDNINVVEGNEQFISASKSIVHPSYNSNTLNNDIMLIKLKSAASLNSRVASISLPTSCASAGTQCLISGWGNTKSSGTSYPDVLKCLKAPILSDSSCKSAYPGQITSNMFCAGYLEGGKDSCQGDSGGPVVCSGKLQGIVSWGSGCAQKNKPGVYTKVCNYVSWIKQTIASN
# [3] = target: human neutrophil elastase (HNE), immobilized on agarose beads (human) (UniProt P08246); test: phage on beads, acid elution, pfu
# [4] = target: trypsin (immobilized active trypsin, Pierce; or free trypsin) (UniProt P00760); test: phage on beads, acid elution, pfu
# [5] = target: Protein A-agarose beads (UniProt P38507); test: phage titer after protein A-agarose
# [6] = target: normal rabbit serum / IgG purified from normal rabbit serum; test: phage titer after normal rabbit IgG
# [7] = target: anhydro-trypsin (agarose-immobilized, Pierce) (UniProt P00760); test: phage on beads, acid elution, pfu; experiment 1
# [8] = target: anhydro-trypsin (agarose-immobilized, Pierce) (UniProt P00760); test: phage on beads, acid elution, pfu; experiment 2
# [9] = target: normal rabbit serum / IgG purified from normal rabbit serum; test: phage titer after normal rabbit IgG and protein A-agarose
# [10] = target: trypsin (immobilized active trypsin, Pierce; or free trypsin) (UniProt P00760); test: phage on trypsin beads, pH 2.2 elution
# [11] = target: anhydro-trypsin (agarose-immobilized, Pierce) (UniProt P00760); test: phage titer after incubation with agarose beads
# [12] = target: streptavidin (agarose-immobilized, Sigma) (UniProt P22629); test: phage titer after incubation with agarose beads
# Sequence of streptavidin (agarose-immobilized, Sigma) (P22629 37-163 limits assumed): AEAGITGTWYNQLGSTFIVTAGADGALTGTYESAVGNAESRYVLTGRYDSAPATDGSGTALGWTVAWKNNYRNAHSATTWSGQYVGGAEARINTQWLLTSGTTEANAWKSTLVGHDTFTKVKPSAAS
# [13] = target: anhydro-trypsin (agarose-immobilized, Pierce) (UniProt P00760); test: phage on agarose beads, pH 2.2 elution, dot blot
# [14] = target: streptavidin (agarose-immobilized, Sigma) (UniProt P22629); test: phage on agarose beads, pH 2.2 elution, dot blot
# [15] = target: T1, human neutrophil elastase (HNE), …; test: phage on HNE beads, stepwise pH elution
# [16] = target: T1, human neutrophil elastase (HNE), …; test: phage on HNE beads, abbreviated pH elution
molecule,measurement,setting,value
"M13mp18 phage (wild type control, non-display phage)","eluted phage, % of input",[1],0.1 % of input
same,relative binding (to M13MP18),[1],1 fold
same,"eluted phage, % of input",[2],0.00023 % of input
same,relative binding (to M13MP18),[2],1 fold
same,"eluted phage, % of input",[3],0.0003 % of input
same,relative binding (to M13MP18),[3],1 fold
same,"eluted phage, % of input",[4],0.0005 % of input
same,relative binding (to M13MP18),[4],1 fold
same,"% of input pfu left, +Protein A",[5],72 % of input
same,"% of input pfu left, +NRS",[6],104 % of input
same,binding relative to M13MP18,[7],1 fold
same,"eluted phage, % of input",[7],0.2 % of input
same,binding relative to M13mp18,[8],1 fold
same,"eluted phage, % of input",[8],0.3 % of input
same,"% of input pfu left, +NRS +Protein A",[9],88 % of input
"MK phage (control, no displayed domain)","percent of input phage recovered, CBS pH 6.5",[10],0.00028%
same,"percent of input phage recovered, TBS pH 7.5",[10],0.00034%
same,"total pfu recovered in elution buffer, CBS pH 6.5",[10],1.35e+06 pfu
same,"total pfu recovered in elution buffer, TBS pH 7.5",[10],1.48e+06 pfu
same,"percent residual titer, 1 h, 2 µl IAT",[11],97%
same,"percent residual titer, 1 h, 5 µl IAT",[11],110%
same,"percent residual titer, 1 h, 10 µl IAT",[11],99%
same,"percent residual titer, 2 h, 2 µl IAT",[11],103%
same,"percent residual titer, 2 h, 5 µl IAT",[11],111%
same,"percent residual titer, 2 h, 10 µl IAT",[11],93%
same,"percent residual titer, 4 h, 2 µl IAT",[11],95%
same,"percent residual titer, 4 h, 5 µl IAT",[11],96%
same,"percent residual titer, 4 h, 10 µl IAT",[11],106%
same,"percent residual titer, 1 h, 5 µl IS",[12],106%
same,"percent residual titer, 2 h, 5 µl IS",[12],96%
same,"percent residual titer, 4 h, 5 µl IS",[12],98%
same,"percent of total phage recovered in elution buffer, 2 µl IAT",[13],< 1%
same,"percent of total phage recovered in elution buffer, 5 µl IAT",[13],< 1%
same,"percent of total phage recovered in elution buffer, 10 µl IAT",[13],< 1%
same,"percent of total phage recovered in elution buffer, 5 µl IS",[14],< 1%
MA-ITI-E7 phage (ITI-DI-III fusion with the EpiNE-7 changes around the P1 position) (designed binder) KEDSCQLGYSAGPCVAMFPRYFYNGTSMACETFQYGGCMGNGNNFVTEKECLQTCRGAAETVESCLAKPHTENSFTNVWKDDKTLDRYANYEGCLWNATGVVVCTGDETQCYGTWVPIGLAIPENEGGGSEGGGSEGGGSEGGGTKPPEYGDTPIPGYTYINPLDGTYPPGTEQNPANPNPSLEESQPLNTFMFQNNRFRNRQGALTVYTGTVTQGTDPVKTYYQYTPVSSKAMYDAYWNGKFRDCAFHSGFNEDPFVCEYQGQSSDLPQPPVNAGGGSGGGSGGGSEGGGSEGGGSEGGGSEGGGSGGGSGSGDFDYEKMANANKGAMTENADENALQSDAKGKLDSVATDYGAAIDGFIGDVSGLANGNGATGDFAGSNSQMAQVGDGDNSPLMNNFRQYLPSLPQSVECRPFVFSAGKPYEFSIDCDKINLFRGVFAFLLYVATFMYVFSTFANILRNKES,fold lower total fraction eluted than EpiNE-7 phage,[15],~40 fold
same,fold lower total fraction eluted than EpiNE-7 phage,[16],40 fold
same,fold total fraction eluted against MA-ITI phage,[16],10 fold
